Ten molecules from article PMC9638933 can be followed below.

A word on the stoichiometry N: it is the number of molecules, sites or subunits per partner or assembly. The Kd is the constant that tells how readily two partners part at equilibrium.

Series [1] deals with Kumin (M. tuberculosis Ku without the extended C-terminus) (M. tuberculosis). Description: SEC-MALS; 50 uM protein in 50 mM HEPES pH 8.0, 1 mM EDTA, 200 mM NaCl; Superdex 200 Increase 10/300 GL; MiniDAWN and Optilab. On the technique in general: In gel filtration, larger molecules generally elute earlier.
Series [2] has the same target. Kind of series: BLI; Octet RED96, 37°C, 1000 rpm; biotinylated Ku (25 ug/ml) loaded on streptavidin biosensors; LigD, LIG or POL as analyte (12.5 ug/ml), 300 s association, 300 s dissociation; 1x kinetics buffer (0.1% BSA, 0.02% Tween-20, 0.05% sodium azide in PBS); grouped global fit. A general note: Biolayer interferometry detects binding as a change in optical thickness at a sensor tip.

Series [3] concerns the molecule itself. Kind of series: SEC-MALS; 50 uM protein; 50 mM HEPES pH 8.0, 1 mM EDTA, 200 mM NaCl; Superdex 200 Increase 10/300 GL.
For a further series, the target named is LigD (UniProt P9WNV3 1-759). Kind of series: fluorescence polarization; EMSA: 50 mM Tris-HCl pH 8.0, 50 mM NaCl, 1 mM DTT, 5 mM MgCl2, 4% glycerol, 0.025 mg/ml BSA, 10 nM DNA, 30 C 20 min; FP: 10 mM Tris-HCl pH 8, 10 mM NaCl, 10% glycerol, 1 mM TCEP, 50 nM DNA, 30 C; ternary EMSA: 20 mM Tris-HCl pH 8.0, 5 mM MgCl2, 5% glycerol, 37 C; bridging: 20 mM Tris-HCl pH 7.5, 50 mM KCl, 5 mM EDTA, 1 mM DTT, 5% glycerol, 40 ug/ml BSA, room temperature. The note with it: protein: recombinant; tags: His (Ni-NTA purified; pMCSG7); label: 5' 6-FAM on strand 1; blunt.
LigD, sequence (P9WNV3 whole entry): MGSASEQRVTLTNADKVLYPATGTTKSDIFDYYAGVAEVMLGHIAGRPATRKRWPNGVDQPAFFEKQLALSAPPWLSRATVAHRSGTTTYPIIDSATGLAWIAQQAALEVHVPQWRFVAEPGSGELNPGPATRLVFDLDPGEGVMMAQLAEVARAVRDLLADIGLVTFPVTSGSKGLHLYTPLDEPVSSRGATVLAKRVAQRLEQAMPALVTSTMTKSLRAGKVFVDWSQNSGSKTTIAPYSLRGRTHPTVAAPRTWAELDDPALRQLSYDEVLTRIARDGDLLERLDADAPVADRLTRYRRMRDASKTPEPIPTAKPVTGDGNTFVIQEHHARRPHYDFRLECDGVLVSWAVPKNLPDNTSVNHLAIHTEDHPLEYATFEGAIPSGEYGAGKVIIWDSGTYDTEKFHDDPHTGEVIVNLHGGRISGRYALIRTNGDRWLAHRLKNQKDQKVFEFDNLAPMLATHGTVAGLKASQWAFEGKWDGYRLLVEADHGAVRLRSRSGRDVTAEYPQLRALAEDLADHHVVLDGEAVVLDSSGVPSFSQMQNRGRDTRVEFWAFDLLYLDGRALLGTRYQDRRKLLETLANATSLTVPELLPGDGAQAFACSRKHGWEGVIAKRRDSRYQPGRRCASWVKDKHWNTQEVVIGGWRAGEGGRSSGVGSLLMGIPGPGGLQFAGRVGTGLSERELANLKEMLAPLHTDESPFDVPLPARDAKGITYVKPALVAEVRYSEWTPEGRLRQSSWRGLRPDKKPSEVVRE

Series [4] deals with T1, KuWT (Mycobacterium tuberculosis, UniProt P9WKD9 1-273).
T1 sequence: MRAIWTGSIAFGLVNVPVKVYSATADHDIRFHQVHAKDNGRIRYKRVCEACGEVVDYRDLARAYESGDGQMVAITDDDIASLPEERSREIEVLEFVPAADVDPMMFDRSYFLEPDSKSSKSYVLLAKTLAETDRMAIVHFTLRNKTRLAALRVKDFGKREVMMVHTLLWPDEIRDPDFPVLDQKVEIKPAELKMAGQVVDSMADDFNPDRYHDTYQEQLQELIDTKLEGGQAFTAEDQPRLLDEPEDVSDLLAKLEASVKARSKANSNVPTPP
Description: EMSA; 5 mM Mg2+; EMSA: 50 mM Tris-HCl pH 8.0, 50 mM NaCl, 1 mM DTT, 5 mM MgCl2, 4% glycerol, 0.025 mg/ml BSA, 10 nM DNA, 30 C 20 min; FP: 10 mM Tris-HCl pH 8, 10 mM NaCl, 10% glycerol, 1 mM TCEP, 50 nM DNA, 30 C; ternary EMSA: 20 mM Tris-HCl pH 8.0, 5 mM MgCl2, 5% glycerol, 37 C; bridging: 20 mM Tris-HCl pH 7.5, 50 mM KCl, 5 mM EDTA, 1 mM DTT, 5% glycerol, 40 ug/ml BSA, room temperature. Particulars: protein: recombinant; tags: His (Ni-NTA purified; pMCSG7); chain copies: 2; label: 5' 6-FAM on strand 1; blunt. A general note: Mobility shift assays separate free from complexed probe on a gel.

In series [5] the target is T2, Kumin (Mycobacterium tuberculosis, UniProt P9WKD9 1-259).
T2 sequence: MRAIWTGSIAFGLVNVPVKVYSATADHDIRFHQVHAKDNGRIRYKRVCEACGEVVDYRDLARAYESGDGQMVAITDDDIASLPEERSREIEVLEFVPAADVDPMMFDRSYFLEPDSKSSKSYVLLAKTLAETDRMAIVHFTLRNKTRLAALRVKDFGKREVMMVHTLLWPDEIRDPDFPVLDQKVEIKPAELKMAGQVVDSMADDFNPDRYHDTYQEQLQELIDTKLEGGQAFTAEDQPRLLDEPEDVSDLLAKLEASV
The series is described as above. The note with it: protein: recombinant; tags: His (Ni-NTA purified; pMCSG7); chain copies: 2; label: 5' 6-FAM on strand 1; blunt.

The target of series [6] is T3, Kucore (Mycobacterium tuberculosis, UniProt P9WKD9 1-238).
T3 sequence: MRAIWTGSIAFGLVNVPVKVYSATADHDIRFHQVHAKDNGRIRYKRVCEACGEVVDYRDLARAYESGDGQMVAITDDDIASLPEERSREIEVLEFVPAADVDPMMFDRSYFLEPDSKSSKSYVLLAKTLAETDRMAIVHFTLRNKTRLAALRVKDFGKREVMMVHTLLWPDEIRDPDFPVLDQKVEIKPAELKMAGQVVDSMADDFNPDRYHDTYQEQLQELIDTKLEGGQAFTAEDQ
The series is described as above. The note with it: protein: recombinant; tags: His (Ni-NTA purified; pMCSG7); chain copies: 2; label: 5' 6-FAM on strand 1; blunt.

Series [7] deals with T2, Kumin. Kind of series: EMSA; EMSA: 50 mM Tris-HCl pH 8.0, 50 mM NaCl, 1 mM DTT, 5 mM MgCl2, 4% glycerol, 0.025 mg/ml BSA, 10 nM DNA, 30 C 20 min; FP: 10 mM Tris-HCl pH 8, 10 mM NaCl, 10% glycerol, 1 mM TCEP, 50 nM DNA, 30 C; ternary EMSA: 20 mM Tris-HCl pH 8.0, 5 mM MgCl2, 5% glycerol, 37 C; bridging: 20 mM Tris-HCl pH 7.5, 50 mM KCl, 5 mM EDTA, 1 mM DTT, 5% glycerol, 40 ug/ml BSA, room temperature. The note with it: protein: recombinant; tags: His (Ni-NTA purified; pMCSG7); chain copies: 2; label: 5' 6-FAM on strand 1; blunt.

Series [8] has as its target T3, Kucore. The description is as above. Particulars: protein: recombinant; tags: His (Ni-NTA purified; pMCSG7); chain copies: 2; label: 5' 6-FAM on strand 1; blunt.
Series [9] concerns the target T1, KuWT. The description is as above. Particulars: protein: recombinant; tags: His (Ni-NTA purified; pMCSG7); chain copies: 2; label: 5' 6-FAM on strand 1; blunt.
Series [10] concerns the molecule itself. Kind of series: SEC-MALS; 50 uM protein in 50 mM HEPES pH 8.0, 1 mM EDTA, 200 mM NaCl; Superdex 200 Increase 10/300 GL; MiniDAWN and Optilab.
For series [11], the target named is T4, LigD (wildtype), Mycobacterium tuberculosis (M. tuberculosis, UniProt P9WNV3 1-759).
T4 construct: The His tag is TEV-cleavable; also called wildtype LigD
T4 sequence (P9WNV3 whole entry): as the sequence (P9WNV3 whole entry) above
Kind of series: BLI; Octet RED96, 37°C, 1000 rpm; biotinylated Ku (25 ug/ml) loaded on streptavidin biosensors; LigD, LIG or POL as analyte (12.5 ug/ml), 300 s association, 300 s dissociation; 1x kinetics buffer (0.1% BSA, 0.02% Tween-20, 0.05% sodium azide in PBS); grouped global fit. The note with it: both partners purified.

Take “Kumin (M. tuberculosis Ku without the extended C-terminus) (domain or fragment)”: in series [1], the stoichiometry N worked out at 2.

“LigD (wildtype), Mycobacterium tuberculosis (from UniProt P9WNV3 1-759) (enzyme)” registered an equilibrium dissociation constant (Kd) in series [2] of 288 nM.

B1: Mycobacterium tuberculosis Ku, wildtype (natural protein)
chain: MRAIWTGSIAFGLVNVPVKVYSATADHDIRFHQVHAKDNGRIRYKRVCEACGEVVDYRDLARAYESGDGQMVAITDDDIASLPEERSREIEVLEFVPAADVDPMMFDRSYFLEPDSKSSKSYVLLAKTLAETDRMAIVHFTLRNKTRLAALRVKDFGKREVMMVHTLLWPDEIRDPDFPVLDQKVEIKPAELKMAGQVVDSMADDFNPDRYHDTYQEQLQELIDTKLEGGQAFTAEDQPRLLDEPEDVSDLLAKLEASVKARSKANSNVPTPP
notes: The His tag is TEV-cleavable (pMCSG7) and no cleavage is described; also called KuWT
As for B1, the “stoichiometry N” value in series [3] was found to be 2.

B2: 30 bp dsDNA (dsDNA)
DNA 1: CAGGAGGTGTAGGGAAGGGAATGTTGTCTG
DNA 2: CAGACAACATTCCCTTCCCTACACCTCCTG
With B2, in the series with LigD, the binding result is recorded as “binds”. Also, the Kd with KuWT [4] is 1180 ± 90 nM.

B3: 20 bp dsDNA (dsDNA)
DNA 1: CAGGAAGGGAATGTTGTCTG
DNA 2: CAGACAACATTCCCTTCCTG
For B3, the binding result with LigD, in the series with Kumin [5], in the series with Kucore [6] and with KuWT [4] was “binds” in each case.

B4: 15 bp dsDNA (dsDNA)
DNA 1: CAGGAAGGGAATGTT
DNA 2: AACATTCCCTTCCTG
Take B4: the binding result in the series with LigD was “binds”. In the series with KuWT [4], the Kd turned out to be 1630 ± 300 nM.

B5: 10 bp dsDNA (dsDNA)
DNA 1: CAGGAAGGTG
DNA 2: CACCTTCCTG
B5: the dissociation constant (Kd) in the series with LigD turned out to be 1100 ± 70 nM. In addition, the binding result with Kumin [7], with Kucore [8] and with KuWT [9] was “no binding” each time.

B6: Mycobacterium tuberculosis Kucore (entire C-terminus removed) (domain or fragment)
chain: MRAIWTGSIAFGLVNVPVKVYSATADHDIRFHQVHAKDNGRIRYKRVCEACGEVVDYRDLARAYESGDGQMVAITDDDIASLPEERSREIEVLEFVPAADVDPMMFDRSYFLEPDSKSSKSYVLLAKTLAETDRMAIVHFTLRNKTRLAALRVKDFGKREVMMVHTLLWPDEIRDPDFPVLDQKVEIKPAELKMAGQVVDSMADDFNPDRYHDTYQEQLQELIDTKLEGGQAFTAEDQ
modifications: in BLI only: biotin (NHS-LC-Biotin) on K19, K37, K45, K117, K120, K127, K154, K158, K184, K188, K193, K226
notes: Ku of M. tuberculosis, UniProt P9WKD9, residues 1-238 (core domain); The His tag is TEV-cleavable (pMCSG7) and no cleavage is described; The protein was not biotinylated for SEC-MALS; also called Ku core domain
In the case of B6, in series [3], the “stoichiometry N” value came to 2.

B7: Ku_(core) (M. tuberculosis Ku core domain, entire C-terminus removed) (domain or fragment)
chain: MRAIWTGSIAFGLVNVPVKVYSATADHDIRFHQVHAKDNGRIRYKRVCEACGEVVDYRDLARAYESGDGQMVAITDDDIASLPEERSREIEVLEFVPAADVDPMMFDRSYFLEPDSKSSKSYVLLAKTLAETDRMAIVHFTLRNKTRLAALRVKDFGKREVMMVHTLLWPDEIRDPDFPVLDQKVEIKPAELKMAGQVVDSMADDFNPDRYHDTYQEQLQELIDTKLEGGQAFTAEDQ
modifications: biotinylated at multiple sites with NHS-LC-Biotin for BLI only (sites listed in Supplementary Table S3)
With B7, in [10], the “stoichiometry N” value is 2. In addition, in series [11], binding was characterised by a dissociation constant (Kd) of 200 nM.

B8: Mycobacterium tuberculosis Kumin (extended C-terminus removed) (domain or fragment)
chain: MRAIWTGSIAFGLVNVPVKVYSATADHDIRFHQVHAKDNGRIRYKRVCEACGEVVDYRDLARAYESGDGQMVAITDDDIASLPEERSREIEVLEFVPAADVDPMMFDRSYFLEPDSKSSKSYVLLAKTLAETDRMAIVHFTLRNKTRLAALRVKDFGKREVMMVHTLLWPDEIRDPDFPVLDQKVEIKPAELKMAGQVVDSMADDFNPDRYHDTYQEQLQELIDTKLEGGQAFTAEDQPRLLDEPEDVSDLLAKLEASV
modifications: in BLI only: biotin (NHS-LC-Biotin) on K19, K37, K45, K117, K120, K127, K154, K184, K188, K193, K226, K254
notes: Ku of M. tuberculosis, UniProt P9WKD9, residues 1-259 (core domain and minimal C-terminal region); The His tag is TEV-cleavable (pMCSG7) and no cleavage is described; The protein was not biotinylated for SEC-MALS
As to B8, the “stoichiometry N” value in series [3] came to 2.
